Test results: patent US20110206668A1

Target: murine MRC OX-2 (mouse) (UniProt O54901)
Assay: FACS of 10-day cultured mouse bone marrow derived dendritic cells, anti-CD200 and PE anti-mouse IgG

Chain of UniProt O54901 (O54901 31-278 limits assumed): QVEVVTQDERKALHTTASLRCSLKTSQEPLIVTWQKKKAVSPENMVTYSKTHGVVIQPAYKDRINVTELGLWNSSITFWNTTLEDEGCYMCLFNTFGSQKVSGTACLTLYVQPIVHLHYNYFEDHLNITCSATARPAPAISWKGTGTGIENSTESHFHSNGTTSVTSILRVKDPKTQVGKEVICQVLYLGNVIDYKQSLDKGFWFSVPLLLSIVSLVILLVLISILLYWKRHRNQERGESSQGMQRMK

- percent stained cells: 14%
Substance: mouse IgG1 anti-rat CD200 (commercial anti-rat MRC OX-2 monoclonal antibody, Cedarlane Labs)
